PMC12549891

Biological target: human olfactory CNGA2/A4/B1b heterotetrameric channel (human) (UniProt Q16280)
Sequence (Q16280 whole entry, chain 1 of 3): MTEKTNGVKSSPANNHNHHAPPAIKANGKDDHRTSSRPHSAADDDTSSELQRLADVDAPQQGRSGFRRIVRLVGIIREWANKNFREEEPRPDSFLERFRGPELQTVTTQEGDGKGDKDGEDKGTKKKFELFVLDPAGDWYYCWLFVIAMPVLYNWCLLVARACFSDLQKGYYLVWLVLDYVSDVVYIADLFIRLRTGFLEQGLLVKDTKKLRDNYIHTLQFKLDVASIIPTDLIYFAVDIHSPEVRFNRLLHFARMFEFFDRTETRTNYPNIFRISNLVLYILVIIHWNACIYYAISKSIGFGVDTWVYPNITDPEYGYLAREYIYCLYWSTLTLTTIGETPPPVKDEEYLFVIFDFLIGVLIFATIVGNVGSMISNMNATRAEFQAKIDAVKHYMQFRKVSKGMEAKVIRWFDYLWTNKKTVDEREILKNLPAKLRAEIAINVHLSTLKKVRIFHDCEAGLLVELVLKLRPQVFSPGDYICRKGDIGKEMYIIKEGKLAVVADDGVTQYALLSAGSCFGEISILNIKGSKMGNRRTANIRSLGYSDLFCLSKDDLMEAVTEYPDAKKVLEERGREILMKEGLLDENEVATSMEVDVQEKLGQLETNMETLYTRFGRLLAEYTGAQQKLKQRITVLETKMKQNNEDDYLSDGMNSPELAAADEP
Sequence (Q8IV77 whole entry, chain 2 of 3, further chain): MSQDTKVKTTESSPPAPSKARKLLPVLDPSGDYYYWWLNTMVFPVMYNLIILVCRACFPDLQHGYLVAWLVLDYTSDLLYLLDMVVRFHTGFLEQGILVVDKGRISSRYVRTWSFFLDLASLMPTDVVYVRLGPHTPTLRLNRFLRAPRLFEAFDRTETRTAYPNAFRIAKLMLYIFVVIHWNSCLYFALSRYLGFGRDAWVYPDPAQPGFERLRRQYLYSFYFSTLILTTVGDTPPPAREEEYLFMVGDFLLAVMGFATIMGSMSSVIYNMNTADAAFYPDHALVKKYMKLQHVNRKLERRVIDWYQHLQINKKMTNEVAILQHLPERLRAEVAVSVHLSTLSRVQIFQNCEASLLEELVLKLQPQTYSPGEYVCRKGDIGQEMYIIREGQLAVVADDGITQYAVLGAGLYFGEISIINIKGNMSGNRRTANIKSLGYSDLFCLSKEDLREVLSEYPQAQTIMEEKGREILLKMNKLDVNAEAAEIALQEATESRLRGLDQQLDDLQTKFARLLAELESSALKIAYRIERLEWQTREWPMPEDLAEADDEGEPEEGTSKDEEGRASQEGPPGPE
Sequence (Q14028 456-1251, chain 3 of 3, further chain): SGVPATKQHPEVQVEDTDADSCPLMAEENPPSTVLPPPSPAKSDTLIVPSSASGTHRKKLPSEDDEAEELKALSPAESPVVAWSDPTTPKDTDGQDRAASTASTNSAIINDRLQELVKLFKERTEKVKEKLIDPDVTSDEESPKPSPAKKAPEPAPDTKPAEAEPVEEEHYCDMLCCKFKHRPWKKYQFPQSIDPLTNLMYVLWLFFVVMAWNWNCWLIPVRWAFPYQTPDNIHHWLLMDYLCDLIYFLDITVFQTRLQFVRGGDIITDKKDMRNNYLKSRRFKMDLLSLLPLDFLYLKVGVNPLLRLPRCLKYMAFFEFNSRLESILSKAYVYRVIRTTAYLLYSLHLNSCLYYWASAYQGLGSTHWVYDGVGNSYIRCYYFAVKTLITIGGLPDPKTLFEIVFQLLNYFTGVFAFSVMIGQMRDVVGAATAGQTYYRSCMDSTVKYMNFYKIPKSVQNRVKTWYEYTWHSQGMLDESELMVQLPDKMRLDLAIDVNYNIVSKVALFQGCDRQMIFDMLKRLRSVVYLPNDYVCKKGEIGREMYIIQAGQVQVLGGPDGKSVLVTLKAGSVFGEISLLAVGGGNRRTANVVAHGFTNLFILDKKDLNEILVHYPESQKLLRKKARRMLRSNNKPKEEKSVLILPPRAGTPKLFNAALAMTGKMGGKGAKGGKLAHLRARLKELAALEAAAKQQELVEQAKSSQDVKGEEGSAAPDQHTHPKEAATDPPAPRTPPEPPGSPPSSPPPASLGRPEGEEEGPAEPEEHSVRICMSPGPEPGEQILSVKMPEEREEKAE

time of washout with EGTA-containing bath solution needed to remove the bound (endogenous) CaM from the channel in excised patches: 10 min
Substance: human calmodulin (from UniProt P0DP23 1-149) (natural protein)
